Experiment [1] addresses SpoVM (synthesized 26-amino-acid peptide), adsorbed on spherical supported lipid bilayers (Bacillus subtilis). Description: fluorescence microscopy of retention on bead-supported lipid bilayers after competition; 0.006 uM SpoIVA^AF488 adsorbed on SpoVM-SSLBs without ATP in buffer A with 10 mM MgCl2; then 5 uM (800-fold excess) unlabelled SpoIVA; followed over time to 72 h.
Experiment [2] has the same target. As to the kind of experiment: fluorescence microscopy of retention on bead-supported lipid bilayers after competition; 0.006 uM SpoIVA^AF488 adsorbed on SpoVM-SSLBs with 4 mM ATP in buffer A with 10 mM MgCl2; then 5 uM (800-fold excess) unlabelled SpoIVA; followed over time to 72 h.

SpoVM (synthesized 26-amino-acid peptide), adsorbed on spherical supported lipid bilayers (Bacillus subtilis), sequence (P37817 whole entry): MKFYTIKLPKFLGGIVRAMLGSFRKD

For “SpoIVA^AF488 (His6-tagged cysteine-less SpoIVA variant C98S with a single engineered cysteine at the N terminus, labelled with AlexaFluor 488) (from UniProt P35149 1-492) (natural protein)”, in experiment [1], the percent of the initial SpoIVA^AF488 still adsorbed after 4 h of competition with unlabelled SpoIVA, without ATP was 72% and the percent of the initial SpoIVA^AF488 still adsorbed after 72 h of competition with unlabelled SpoIVA, without ATP came out at 26%. For the same substance, the percent of the initial SpoIVA^AF488 still adsorbed after 72 h of competition with unlabelled SpoIVA, with ATP in experiment [2] amounted to 81%.
